Measured values: patent US20260049138A1 (Chugai, published 2026)

Target: T1, CD3ε homodimer protein (human, UniProt P07766 23-126, limits assumed)
T1 construct: also called CD3 (CD3ε)
Assay: SPR Biacore T200, CD3ε homodimer on chip;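 note: Light-chain single-residue variant antibodies injected over amine-coupled CD3ε homodimer on a CM4 chip at 25 °C, bound amount divided by that of the GLS3000-containing antibody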

T1 sequence (P07766 23-126 limits assumed): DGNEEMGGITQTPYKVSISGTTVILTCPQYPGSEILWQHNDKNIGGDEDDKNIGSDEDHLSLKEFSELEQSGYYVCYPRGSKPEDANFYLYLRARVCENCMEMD

B1: GLS3000 L27bF one-arm antibody (antibody, human IgG1, kappa, L234A L235A, N297A, name in Kabat numbering)
heavy: QVQLVESGGGVVQPGRSLRLSCAASGFTFSNAWMHWVRQAPGKGLEWVAQIKAKSNNYATYYAESVKGRFTISRDDSKNSLYLQMNSLKTEDTAVYYCRYVHYGAYYGVDAWGQGTTVTVSSASTKGPSVFPLAPSSKSTSGGTAALGCLVKDYFPEPVTVSWNSGALTSGVHTFPAVLQSSGLYSLSSVVTVPSSSLGTQTYICNVNHKPSNTKVDKKVEPKSCDKTHTCPPCPAPEAAGGPSVFLFPPKPKDTLMISRTPEVTCVVVDVSHEDPEVKFNWYVDGVEVHNAKTKPREEQYASTYRVVSVLTVLHQDWLNGKEYKCKVSNKALPAPIEKTISKAKGQPREPQVYTLPPSRCELTKNQVSLSCAVKGFYPSDIAVEWESNGQPENNYKTTPPVLDSDGSFFLVSKLTVDKSRWQQGNVFSCSVMHEALHNHYTQKSLSLSPDYKDDDDK
chain: EPKSSDKTHTCPPCPAPELLGGPSVFLFPPKPKDTLMISRTPEVTCVVVDVSHEDPEVKFNWYVDGVEVHNAKTKPREEQYNSTYRVVSVLTVLHQDWLNGKEYKCKVSNKALPAPIEKTISKAKGQPREPQVCTLPPSRDELTKNQVSLWCLVKGFYPSDIAVEWESNGQPENNYKTTPPVLDSDGSFFLYSKLTVDKSRWQQGNVFSCSVMHEALHNRYTQKSLSLSP
light: DIVMTQSPLSLPVTPGEPASISCRSSQSFVHSNRNTYLHWYQQKPGQAPRLLIYKVSNRFSGVPDRFSGSGSGTDFTLKISRVEAEDVGVYYCGQGTQVPYTFGQGTKLEIKRTVAAPSVFIFPPSDEQLKSGTASVVCLLNNFYPREAKVQWKVDNALQSGNSQESVTEQDSKDSTYSLSSTLTLSKADYEKHKVYACEVTHQGLSSPVTKSFNRGEC
ratio of amount bound vs unaltered GLS3000: 0.42

B2: GLS3000 L27bI one-arm antibody (antibody, human IgG1, kappa, L234A L235A, N297A, name in Kabat numbering)
heavy: QVQLVESGGGVVQPGRSLRLSCAASGFTFSNAWMHWVRQAPGKGLEWVAQIKAKSNNYATYYAESVKGRFTISRDDSKNSLYLQMNSLKTEDTAVYYCRYVHYGAYYGVDAWGQGTTVTVSSASTKGPSVFPLAPSSKSTSGGTAALGCLVKDYFPEPVTVSWNSGALTSGVHTFPAVLQSSGLYSLSSVVTVPSSSLGTQTYICNVNHKPSNTKVDKKVEPKSCDKTHTCPPCPAPEAAGGPSVFLFPPKPKDTLMISRTPEVTCVVVDVSHEDPEVKFNWYVDGVEVHNAKTKPREEQYASTYRVVSVLTVLHQDWLNGKEYKCKVSNKALPAPIEKTISKAKGQPREPQVYTLPPSRCELTKNQVSLSCAVKGFYPSDIAVEWESNGQPENNYKTTPPVLDSDGSFFLVSKLTVDKSRWQQGNVFSCSVMHEALHNHYTQKSLSLSPDYKDDDDK
chain: EPKSSDKTHTCPPCPAPELLGGPSVFLFPPKPKDTLMISRTPEVTCVVVDVSHEDPEVKFNWYVDGVEVHNAKTKPREEQYNSTYRVVSVLTVLHQDWLNGKEYKCKVSNKALPAPIEKTISKAKGQPREPQVCTLPPSRDELTKNQVSLWCLVKGFYPSDIAVEWESNGQPENNYKTTPPVLDSDGSFFLYSKLTVDKSRWQQGNVFSCSVMHEALHNRYTQKSLSLSP
light: DIVMTQSPLSLPVTPGEPASISCRSSQSIVHSNRNTYLHWYQQKPGQAPRLLIYKVSNRFSGVPDRFSGSGSGTDFTLKISRVEAEDVGVYYCGQGTQVPYTFGQGTKLEIKRTVAAPSVFIFPPSDEQLKSGTASVVCLLNNFYPREAKVQWKVDNALQSGNSQESVTEQDSKDSTYSLSSTLTLSKADYEKHKVYACEVTHQGLSSPVTKSFNRGEC
ratio of amount bound vs unaltered GLS3000: 1.19

B3: GLS3000 L27bM one-arm antibody (antibody, human IgG1, kappa, L234A L235A, N297A, name in Kabat numbering)
heavy: QVQLVESGGGVVQPGRSLRLSCAASGFTFSNAWMHWVRQAPGKGLEWVAQIKAKSNNYATYYAESVKGRFTISRDDSKNSLYLQMNSLKTEDTAVYYCRYVHYGAYYGVDAWGQGTTVTVSSASTKGPSVFPLAPSSKSTSGGTAALGCLVKDYFPEPVTVSWNSGALTSGVHTFPAVLQSSGLYSLSSVVTVPSSSLGTQTYICNVNHKPSNTKVDKKVEPKSCDKTHTCPPCPAPEAAGGPSVFLFPPKPKDTLMISRTPEVTCVVVDVSHEDPEVKFNWYVDGVEVHNAKTKPREEQYASTYRVVSVLTVLHQDWLNGKEYKCKVSNKALPAPIEKTISKAKGQPREPQVYTLPPSRCELTKNQVSLSCAVKGFYPSDIAVEWESNGQPENNYKTTPPVLDSDGSFFLVSKLTVDKSRWQQGNVFSCSVMHEALHNHYTQKSLSLSPDYKDDDDK
chain: EPKSSDKTHTCPPCPAPELLGGPSVFLFPPKPKDTLMISRTPEVTCVVVDVSHEDPEVKFNWYVDGVEVHNAKTKPREEQYNSTYRVVSVLTVLHQDWLNGKEYKCKVSNKALPAPIEKTISKAKGQPREPQVCTLPPSRDELTKNQVSLWCLVKGFYPSDIAVEWESNGQPENNYKTTPPVLDSDGSFFLYSKLTVDKSRWQQGNVFSCSVMHEALHNRYTQKSLSLSP
light: DIVMTQSPLSLPVTPGEPASISCRSSQSMVHSNRNTYLHWYQQKPGQAPRLLIYKVSNRFSGVPDRFSGSGSGTDFTLKISRVEAEDVGVYYCGQGTQVPYTFGQGTKLEIKRTVAAPSVFIFPPSDEQLKSGTASVVCLLNNFYPREAKVQWKVDNALQSGNSQESVTEQDSKDSTYSLSSTLTLSKADYEKHKVYACEVTHQGLSSPVTKSFNRGEC
ratio of amount bound vs unaltered GLS3000: 0.71

B4: GLS3000 L27bS one-arm antibody (antibody, human IgG1, kappa, L234A L235A, N297A, name in Kabat numbering)
heavy: QVQLVESGGGVVQPGRSLRLSCAASGFTFSNAWMHWVRQAPGKGLEWVAQIKAKSNNYATYYAESVKGRFTISRDDSKNSLYLQMNSLKTEDTAVYYCRYVHYGAYYGVDAWGQGTTVTVSSASTKGPSVFPLAPSSKSTSGGTAALGCLVKDYFPEPVTVSWNSGALTSGVHTFPAVLQSSGLYSLSSVVTVPSSSLGTQTYICNVNHKPSNTKVDKKVEPKSCDKTHTCPPCPAPEAAGGPSVFLFPPKPKDTLMISRTPEVTCVVVDVSHEDPEVKFNWYVDGVEVHNAKTKPREEQYASTYRVVSVLTVLHQDWLNGKEYKCKVSNKALPAPIEKTISKAKGQPREPQVYTLPPSRCELTKNQVSLSCAVKGFYPSDIAVEWESNGQPENNYKTTPPVLDSDGSFFLVSKLTVDKSRWQQGNVFSCSVMHEALHNHYTQKSLSLSPDYKDDDDK
chain: EPKSSDKTHTCPPCPAPELLGGPSVFLFPPKPKDTLMISRTPEVTCVVVDVSHEDPEVKFNWYVDGVEVHNAKTKPREEQYNSTYRVVSVLTVLHQDWLNGKEYKCKVSNKALPAPIEKTISKAKGQPREPQVCTLPPSRDELTKNQVSLWCLVKGFYPSDIAVEWESNGQPENNYKTTPPVLDSDGSFFLYSKLTVDKSRWQQGNVFSCSVMHEALHNRYTQKSLSLSP
light: DIVMTQSPLSLPVTPGEPASISCRSSQSSVHSNRNTYLHWYQQKPGQAPRLLIYKVSNRFSGVPDRFSGSGSGTDFTLKISRVEAEDVGVYYCGQGTQVPYTFGQGTKLEIKRTVAAPSVFIFPPSDEQLKSGTASVVCLLNNFYPREAKVQWKVDNALQSGNSQESVTEQDSKDSTYSLSSTLTLSKADYEKHKVYACEVTHQGLSSPVTKSFNRGEC
ratio of amount bound vs unaltered GLS3000: 0.71

B5: GLS3000 L27bV one-arm antibody (antibody, human IgG1, kappa, L234A L235A, N297A, name in Kabat numbering)
heavy: QVQLVESGGGVVQPGRSLRLSCAASGFTFSNAWMHWVRQAPGKGLEWVAQIKAKSNNYATYYAESVKGRFTISRDDSKNSLYLQMNSLKTEDTAVYYCRYVHYGAYYGVDAWGQGTTVTVSSASTKGPSVFPLAPSSKSTSGGTAALGCLVKDYFPEPVTVSWNSGALTSGVHTFPAVLQSSGLYSLSSVVTVPSSSLGTQTYICNVNHKPSNTKVDKKVEPKSCDKTHTCPPCPAPEAAGGPSVFLFPPKPKDTLMISRTPEVTCVVVDVSHEDPEVKFNWYVDGVEVHNAKTKPREEQYASTYRVVSVLTVLHQDWLNGKEYKCKVSNKALPAPIEKTISKAKGQPREPQVYTLPPSRCELTKNQVSLSCAVKGFYPSDIAVEWESNGQPENNYKTTPPVLDSDGSFFLVSKLTVDKSRWQQGNVFSCSVMHEALHNHYTQKSLSLSPDYKDDDDK
chain: EPKSSDKTHTCPPCPAPELLGGPSVFLFPPKPKDTLMISRTPEVTCVVVDVSHEDPEVKFNWYVDGVEVHNAKTKPREEQYNSTYRVVSVLTVLHQDWLNGKEYKCKVSNKALPAPIEKTISKAKGQPREPQVCTLPPSRDELTKNQVSLWCLVKGFYPSDIAVEWESNGQPENNYKTTPPVLDSDGSFFLYSKLTVDKSRWQQGNVFSCSVMHEALHNRYTQKSLSLSP
light: DIVMTQSPLSLPVTPGEPASISCRSSQSVVHSNRNTYLHWYQQKPGQAPRLLIYKVSNRFSGVPDRFSGSGSGTDFTLKISRVEAEDVGVYYCGQGTQVPYTFGQGTKLEIKRTVAAPSVFIFPPSDEQLKSGTASVVCLLNNFYPREAKVQWKVDNALQSGNSQESVTEQDSKDSTYSLSSTLTLSKADYEKHKVYACEVTHQGLSSPVTKSFNRGEC
ratio of amount bound vs unaltered GLS3000: 1.12

B6: GLS3000 L27bP one-arm antibody (antibody, human IgG1, kappa, L234A L235A, N297A, name in Kabat numbering)
heavy: QVQLVESGGGVVQPGRSLRLSCAASGFTFSNAWMHWVRQAPGKGLEWVAQIKAKSNNYATYYAESVKGRFTISRDDSKNSLYLQMNSLKTEDTAVYYCRYVHYGAYYGVDAWGQGTTVTVSSASTKGPSVFPLAPSSKSTSGGTAALGCLVKDYFPEPVTVSWNSGALTSGVHTFPAVLQSSGLYSLSSVVTVPSSSLGTQTYICNVNHKPSNTKVDKKVEPKSCDKTHTCPPCPAPEAAGGPSVFLFPPKPKDTLMISRTPEVTCVVVDVSHEDPEVKFNWYVDGVEVHNAKTKPREEQYASTYRVVSVLTVLHQDWLNGKEYKCKVSNKALPAPIEKTISKAKGQPREPQVYTLPPSRCELTKNQVSLSCAVKGFYPSDIAVEWESNGQPENNYKTTPPVLDSDGSFFLVSKLTVDKSRWQQGNVFSCSVMHEALHNHYTQKSLSLSPDYKDDDDK
chain: EPKSSDKTHTCPPCPAPELLGGPSVFLFPPKPKDTLMISRTPEVTCVVVDVSHEDPEVKFNWYVDGVEVHNAKTKPREEQYNSTYRVVSVLTVLHQDWLNGKEYKCKVSNKALPAPIEKTISKAKGQPREPQVCTLPPSRDELTKNQVSLWCLVKGFYPSDIAVEWESNGQPENNYKTTPPVLDSDGSFFLYSKLTVDKSRWQQGNVFSCSVMHEALHNRYTQKSLSLSP
light: DIVMTQSPLSLPVTPGEPASISCRSSQSPVHSNRNTYLHWYQQKPGQAPRLLIYKVSNRFSGVPDRFSGSGSGTDFTLKISRVEAEDVGVYYCGQGTQVPYTFGQGTKLEIKRTVAAPSVFIFPPSDEQLKSGTASVVCLLNNFYPREAKVQWKVDNALQSGNSQESVTEQDSKDSTYSLSSTLTLSKADYEKHKVYACEVTHQGLSSPVTKSFNRGEC
ratio of amount bound vs unaltered GLS3000: 0.91
